PMC6208348 (Nature Communications, 2018)
Non-standard residues stand in square brackets, D forms with d. No end group written: not given here. pY = N[C@@H](Cc1ccc(OP(=O)(O)O)cc1)C(=O)O

Biological target: wild-type Src SH2 domain (UniProt P12931 151-248)
Assay: fluorescence polarisation
Conditions: both partners purified

**Q.** Which Kd does the source give for GG[pY]GG (source: synthetic peptide) [mini peptide GGpYGG] here?
**A.** Its Kd is > 50 µM.
